Experimental data as given in patent publication US20190106487A1 (Sanofi, published 2019).
Where a chain is given by its changes, count along the chain named.

T1: rhIL-1RAcP/Fc Chimera (human, UniProt Q9NPH3 21-359)
T1 construct: also called P013_03; P013-03
T1 sequence (looked up): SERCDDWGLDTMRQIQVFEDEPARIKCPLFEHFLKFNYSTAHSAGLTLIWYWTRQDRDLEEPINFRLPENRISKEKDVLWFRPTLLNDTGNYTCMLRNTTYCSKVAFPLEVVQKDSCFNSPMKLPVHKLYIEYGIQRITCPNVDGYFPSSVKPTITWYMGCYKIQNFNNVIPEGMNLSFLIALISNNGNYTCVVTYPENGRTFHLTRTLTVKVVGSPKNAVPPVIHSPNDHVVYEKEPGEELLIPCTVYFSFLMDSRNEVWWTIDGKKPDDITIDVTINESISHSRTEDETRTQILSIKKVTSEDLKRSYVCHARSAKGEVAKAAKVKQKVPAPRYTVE

T2: human IL-1RAcP on 293T/17-FR cells (human, UniProt Q9NPH3 21-570)
T2 sequence (looked up): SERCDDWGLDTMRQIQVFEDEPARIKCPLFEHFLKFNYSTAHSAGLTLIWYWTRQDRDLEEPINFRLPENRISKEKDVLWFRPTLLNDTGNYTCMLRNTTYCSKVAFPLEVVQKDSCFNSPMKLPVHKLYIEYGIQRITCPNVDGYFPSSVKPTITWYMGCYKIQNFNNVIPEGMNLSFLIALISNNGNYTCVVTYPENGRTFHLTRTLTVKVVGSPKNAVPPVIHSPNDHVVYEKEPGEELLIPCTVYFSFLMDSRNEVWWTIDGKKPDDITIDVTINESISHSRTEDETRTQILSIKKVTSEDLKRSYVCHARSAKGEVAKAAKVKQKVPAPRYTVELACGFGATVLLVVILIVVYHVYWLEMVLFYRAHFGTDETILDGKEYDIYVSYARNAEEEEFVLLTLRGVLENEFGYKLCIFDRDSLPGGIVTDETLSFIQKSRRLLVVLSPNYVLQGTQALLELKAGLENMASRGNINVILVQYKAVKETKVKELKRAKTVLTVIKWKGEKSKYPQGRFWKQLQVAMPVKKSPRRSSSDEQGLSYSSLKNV

B1: P013.S.01.B.H04 (antibody, V domains shown)
VH: QSVEESGGRLVTPGTPLTLTCTVSGFSLDSYAMGWVRQAPGKGLEWIGIINSYGSIYYASWAKGRFTISKTSTTVDLKMTSLTTEDTATYFCARSAYSNNGDRLHLWGQGTLVTVSS
VL: DIVMTQTPSPVSGAVGGTVTIKCQASEDIYSNLAWYQQKPGQPPKLLIYYVSTLESGVPSRFKGSRSGTDYTLTISDLESADAATYYCQCTEGGSGSDYTFGGGTEVVVK
notes: rabbit monoclonal antibody; also called P013.A.00014.G05
B2: P013.S.02.B.C04 (antibody, V domains shown)
VH: QQLEQSGGGLVKPGGSLELCCKASGFSLSSSYWICWVRQAPGKGLEWIGCIYAGSSGSTYYANWVNGRFTLSRDIDQSTGCLQLSSLTAADTAMYYCARSIVDFSSGWGDLWGQGTLVTVSS
VL: ALVMTQTPSPVSAAVGGTVTINCQASEDIYSNLAWYQQKPGQPPKLLMYGVSTLASGVPSRFSDSGSGTEFTLTISGLQSDDAATYYCLGVYTYISDVYYTFGGGTEVVVK
notes: rabbit monoclonal antibody; also called P013.A.00085.H07
B3: P013.S.01.B.G05 (antibody, V domains shown)
VH: LEQSGGGAEGGLVKPGGSLELCCKASGFSLSSAYWICWVRQAPGKGLEWVGCIYADSSSITYYASWVNGRFTLSRDIDQSTGCLQLNSLTAADTAMYYCARDYGGSGYNFNLWGQGTLVTVSS
VL: ALVMTQTPSPVSAAVGGTVTISCQASEDIYSNLAWYQQKRGQPPKLLIYYASTLASGVPSRFSGSGSGTEFTLTISGLQSDDAATYYCLGVCTYINANGWDNAFGGGTEVVVK
notes: rabbit monoclonal antibody; also called P013.A.00088.C10
B4: P013.S.01.B.C02 (antibody, V domains shown)
VH: QSLEESGGDLVKPGASLTLTCTASGFSFSSSHYMCWVRQAPGKGLEWIACIYAGSSGNTYYANWAKGRFTISKTSSTTVTLQMTSLTAADTATYFCARVDASSSGSWDLWGPGTLVTVSS
VL: AIEMTQTPFSVSAAVGGTVTINCQASESIYSNLAWYQQILGQPPKLLIYAASLLASGVPSRFKGSGSGTEYTLTISGVQSADAATYYCQSASYSTGPDWTFGGGTEVVVE
notes: rabbit monoclonal antibody; also called P013.A.00014.C10
B5: P013.S.02.B.E03 (antibody, V domains shown)
VH: QSVEESGGRLVTPGTPLTLTCTVSGFSLSDYYMGWVRQAPGKGLEWIGTIDGGGSTYYASWAKGRFTVSKTSTTVDLTITSPTTEDTAIYFCARNYYAGLSDVFFGWWGQGTLVTVSS
VL: DVVMTQTPASVEAAVGGTVTIMCQASETIYSGLAWYQQKPGQPPKLLIYYTSSLASGVPSRFKGSGSGTEFTLTISDLESADAATYYCQTYYDSEGRSYGYNSFGGGTEVVVK
notes: rabbit monoclonal antibody; also called P013.A.00091.A10
B6: P013.S.01.B.C05 (antibody, V domains shown)
VH: QSVEESGGRLVTPGTPLTLTCTVSGFSLSNYAMSWVRQAPGKGLEYIGIIDSGGSAYYATWARGRFTISRTSTTVDLKMTSPTTEDTATYFCARGGPAYSTNTHYTLDLWGPGTLVTVSS
VL: AFEMTQTPSSVSEPVGGTVTIKCQASQSIYNYLSWYQQKPGQPPKLLIYDASELASGVPSRFKGSGSGTEFTLTISGVQSDDAATYYCQQGATTYNIENVFGGGTEVVVK
notes: rabbit monoclonal antibody; also called P013.A.00045.E06
B7: P013.S.01.B.G06 (antibody, V domains shown)
VH: QSLEESGGRLVTPGTPLTLTCTASGFTISSYYMSWVRQAPGKGLEWIGGIATDGNTYYANWAKGRFTVSRTSTTVDLKVTSPTAEDTATYFCARGGPAYSRGTHYAMDLWGPGTLVTVSS
VL: AYDMTQTPASVEVAVGGTVTIKCQASQSIYIYLAWYQQKPGQRPKQLIYDASKLASGVPSRFSGSGSGTEFTLTISGVESADAATYYCQQGATIWNVDNPFGGGTEVVVK
notes: rabbit monoclonal antibody; also called P013.A.00085.H05
B8: P013.S.01.B.B02 (antibody, V domains shown)
VH: LEQSGGGAEGGLVKPGGSLELCCKASGFSLSSSYWICWVRQAPGKGLEWIGCIYTGSSGITYYASWVNGRFTLSRDIDQSTGCLQLNSLTAADTAMYYCAKDGPSTLFNFWGQGTLVTVSS
VL: ALVMTQTPSPVSAAVGGTVTINCQASEDIYSNLAWFQQKPGQPPKLLIYRASTLASGVPSRFKGSGSGTEFTLTISGLQSDDAATYYCLGVYTYPSADNAFGGGTEVVVR
notes: rabbit monoclonal antibody; also called P013.A.00014.B03
B9: P013.S.01.B.D06 (antibody, V domains shown)
VH: QSLEESGGDLVKPGASLTLTCTASGFSFSSSYYMCWVRQAPGKGLEWIACIYAGSSGVTYYASWAKGRFTISDTSSTTVTLQMTSLTAADTATYFCASETDGNYFNLWGPGTLVTVSS
VL: B8 VL with K63S, P95S, S96T, A97D, D98I, N99H, R110K
notes: rabbit monoclonal antibody; also called P013.A.00029.D02
B10: P013.S.01.B.E04 (antibody, V domains shown)
VH: QSVEESGGRLVTPGTPLTLTCTVSGIDLNSNGINWVRQAPGKGLEWIGYIGAGDITYCASWAKGRFTISKTSSTTVDLKITSLTTEDTATYFCARWGPGALDLWGQGTLVTVSS
VL: AQVLTQTASSVSATVGGTVTISCQSSQSVYNNNYLSWYQQKPGQPPKLLIYKASTLASGVPLRFSGSGSGTQFTLTISGVQSDDAATYYCAGFYETTDVGFGGGTEVVVK
notes: rabbit monoclonal antibody; also called P013.A.00109.D07

Target: T1, rhIL-1RAcP/Fc Chimera
Assay: ELISA, recombinant purified mAb

Row | EC50 [µg/mL] | Binder
1 | 0.062 | B1
2 | 0.758 | B2
3 | 0.817 | B3
4 | 0.105 | B4
5 | 0.363 | B5
6 | 0.038 | B6
7 | 0.115 | B7
8 | 0.175 | B8
9 | 0.053 | B9
10 | 0.072 | B10

Target: T1, rhIL-1RAcP/Fc Chimera
Assay: ELISA, primary supernatant, coated hu-IL-1RAcP-Fc
Description: Microtiter plates were coated IL-1RACP and/or IL12Rβ1 protein (recombinant Fc chimeric conjugates of human IL-1RACP or IL12Rβ1). After a blocking process, specific antibodies from B-cell supernatants bind to the targets and are then detected by a POD-labeled anti-rabbit IgG antibody. The IL12Rβ1 binding was used as a counterscreen. IL-1RACP protein was tagged with a linker, huFc and His like the IL12Rβ1 protein. Antibodies which bind to the tag were positive in both assays, whereas antigen specific antibodies just bound to IL-1RACP and not to IL12Rβ1.
12.5 μL 0.5 μg/mL IL-1RACP protein in PBS was transferred to a microtiter plate, incubated and washed 3× with Wash Buffer. 90 μL Block Buffer was added to each well, incubated and washed. 12.5 μl Standard Antibody (rabbit mAb against IL-1RAcP, anti IL12Rbeta1 antibody: IL-12Rbeta1 antibody; GeneTex; Cat. No. GTX103917) or sample diluted in ELISA buffer was added, incubated and washed. 12.5 μl 1:5000 POD-Antibody (Anti-rabbit IgG, peroxidase-linked species-specific Fab2 fragment (from donkey) (ECL); assay dilution: 1:5000) in Elisa Buffer was added, incubated and washed. 15 μl TMB was added and 15 μl HCl was added after sufficient development. Absorbance (Optical Density O.D.) was read at 450 nm/620 nm.

Row | hu-IL1RaP ELISA (OD) | Binder
11 | 3.7 | B1
12 | 2.7 | B2
13 | 3.3 | B3
14 | 3.4 | B4
15 | 3.3 | B5
16 | 2.5 | B6
17 | 3.8 | B7
18 | 3.6 | B8
19 | 3.7 | B9
20 | 3.3 | B10

Target: T2, human IL-1RAcP on 293T/17-FR cells
Assay: cell-based or functional assay

Row | functional reporter gene assay (% inhibition), 0.04 µg/mL mAb [%] | functional reporter gene assay (% inhibition), 0.2 µg/mL mAb [%] | functional reporter gene assay (% inhibition), 1 µg/mL mAb [%] | functional reporter gene assay (% inhibition), 5 µg/mL mAb [%] | primary supernatant functional assay (% inh.), NF-kB luciferase reporter [%] | Binder
21 | 10 | 49 | 49 | 54 | 35 | B1
22 | 29 | 26 | 40 | 91 | 65 | B2
23 | 21 | 50 | 82 | 93 | 81 | B3
24 | 18 | 78 | 99 | 98 | 82 | B4
25 | 6 | 12 | 16 | 25 | 37 | B5
26 | 67 | 74 | 87 | 95 | 27 | B6
27 | 69 | 49 | 94 | 96 | 89 | B7
28 | 75 | 84 | 94 | 98 | 97 | B8
29 | 24 | 66 | 96 | 97 | 80 | B9
30 | 39 | 62 | 88 | 98 | 88 | B10
